The record followed here is the supplement of paper PMC5998384.

Data set [1] relates to HeLa Kyoto. Nature of the data set: solubility in G1/S (NP-40 vs SDS abundance) (log2 ratio); higher = more soluble. Conditions: cell cycle stage: G1/S.
For data set [2], the system named is HeLa Kyoto. Kind of data set: thermal stability score vs G1/S (z-score of summed log2 fold changes over temperatures); higher = more thermally stable than in G1/S.
Data set [3] has as its system HeLa Kyoto. Nature of the data set: melting temperature (median over replicates), in situ; higher = more thermally stable.
Data set [4] has as its system HeLa Kyoto. Kind of data set: solubility change mitosis vs G1/S (difference of NP-40 vs SDS log2 ratios) (log2 ratio difference); higher = more soluble in mitosis.
Where [5] appears, read: cell cycle stage: early G1 (4.5 h after nocodazole release).
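Wherever melting temperature (median over replicates), in situ is given: HeLa Kyoto cells synchronized by double thymidine or nocodazole block, proteins quantified by TMT10plex mass spectrometry, three independent biological replicates.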
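Wherever solubility change mitosis vs G1/S (difference of NP-40 vs SDS log2 ratios) is given: synchronized HeLa Kyoto cells (double thymidine block for G1/S, nocodazole release for mitosis), protein amounts in NP-40 versus SDS lysates quantified by mass spectrometry, three biological replicates.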
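Wherever solubility in G1/S (NP-40 vs SDS abundance) is given: HeLa Kyoto cells arrested at G1/S by double thymidine block, proteins quantified by TMT10plex mass spectrometry in mild NP-40 versus SDS extracts, three biological replicates.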
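Wherever thermal stability score vs G1/S (z-score of summed log2 fold changes over temperatures) is given: synchronized HeLa Kyoto cells, proteins quantified by TMT10plex mass spectrometry, three biological replicates, mitosis taken 0.5 h after nocodazole release, G1/S directly after double thymidine block.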

As for “MAAYLQWRRFVFFDKELVKEPLSNDGAAPGATPASGSAASKFLCLPPGITVCDSGRGSLVFGDMEGQIWFLPRSLQLTGFQAYKLRVTHLYQLKQHNILASVGEDEEGINPLVKIWNLEKRDGGNPLCTRIFPAIPGTEPTVVSCLTVHENLNFMAIGFTDGSVTLNKGDITRDRHSKTQILHKGNYPVTGLAFRQAGKTTHLFVVTTENVQSYIVSGKDYPRVELDTHGCGLRCSALSDPSQDLQFIVAGDECVYLYQPDERGPCFAFEGHKLIAHWFRGYLIIVSRDRKVSPKSEFTSRDSQSSDKQILNIYDLCNKFIAYSTVFEDVVDVLAEWGSLYVLTRDGRVHALQEKDTQTKLEMLFKKNLFEMAINLAKSQHLDSDGLAQIFMQYGDHLYSKGNHDGAVQQYIRTIGKLEPSYVIRKFLDAQRIHNLTAYLQTLHRQSLANADHTTLLLNCYTKLKDSSKLEEFIKKKSESEVHFDVETAIKVLRQAGYYSHALYLAENHAHHEWYLKIQLEDIKNYQEALRYIGKLPFEQAESNMKRYGKILMHHIPEQTTQLLKGLCTDYRPSLEGRSDREAPGCRANSEEFIPIFANNPRELKAFLEHMSEVQPDSPQGIYDTLLELRLQNWAHEKDPQVKEKLHAEAISLLKSGRFCDVFDKALVLCQMHDFQDGVLYLYEQGKLFQQIMHYHMQHEQYRQVISVCERHGEQDPSLWEQALSYFARKEEDCKEYVAAVLKHIENKNLMPPLLVVQTLAHNSTATLSVIRDYLVQKLQKQSQQIAQDELRVRRYREETTRIRQEIQELKASPKIFQKTKCSICNSALELPSVHFLCGHSFHQHCFESYSESDADCPTCLPENRKVMDMIRAQEQKRDLHDQFQHQLRCSNDSFSVIADYFGRGVFNKLTLLTDPPTARLTSSLEAGLQRDLLMHSRRGT [VPS11]”, the “solubility in G1/S (log2)” value in the data set on HeLa Kyoto [1] is -0.142. Moreover, the thermal stability score in the data set on HeLa Kyoto [2] (setting [5]) was -0.498; in the data set with HeLa Kyoto [2] (cell cycle stage: mitosis), -0.231. Moreover, the melting temperature in the data set on HeLa Kyoto [3] (cell cycle stage: G1/S) was found to be 51.3 °C; in the data set on HeLa Kyoto [3] (cell cycle stage: mitosis), 49.9 °C. The “solubility change mitosis (log2)” value with HeLa Kyoto [4] is -0.106.

As for “MACAEFSFHVPSLEELAGVMQKGLKDNFADVQVSVVDCPDLTKEPFTFPVKGICGKTRIAEVGGVPYLLPLVNQKKVYDLNKIAKEIKLPGAFILGAGAGPFQTLGFNSEFMPVIQTESEHKPPVNGSYFAHVNPADGGCLLEKYSEKCHDFQCALLANLFASEGQPGKVIEVKAKRRTGPLNFVTCMRETLEKHYGNKPIGMGGTFIIQKGKVKSHIMPAEFSSCPLNSDEEVNKWLHFYEMKAPLVCLPVFVSRDPGFDLRLEHTHFFSRHGEGGHYHYDTTPDIVEYLGYFLPAEFLYRIDQPKETHSIGRD [C11ORF54]”, in the data set with HeLa Kyoto [1], the “solubility in G1/S (log2)” value worked out at 0.72. For the same sequence, the thermal stability score in the data set on HeLa Kyoto [2] (setting [5]) is -2.98; in the data set on HeLa Kyoto [2] (cell cycle stage: mitosis), -4.1. The melting temperature in the data set with HeLa Kyoto [3] (cell cycle stage: G1/S) is 55.7 °C; with HeLa Kyoto [3] (cell cycle stage: mitosis) it was 56.3 °C. Besides, the “solubility change mitosis (log2)” value with HeLa Kyoto [4] was -0.126.

On to “MADAWEEIRRLAADFQRAQFAEATQRLSERNCIEIVNKLIAQKQLEVVHTLDGKEYITPAQISKEMRDELHVRGGRVNIVDLQQVINVDLIHIENRIGDIIKSEKHVQLVLGQLIDENYLDRLAEEVNDKLQESGQVTISELCKTYDLPGNFLTQALTQRLGRIISGHIDLDNRGVIFTEAFVARHKARIRGLFSAITRPTAVNSLISKYGFQEQLLYSVLEELVNSGRLRGTVVGGRQDKAVFVPDIYSRTQSTWVDSFFRQNGYLEFDALSRLGIPDAVSYIKKRYKTTQLLFLKAACVGQGLVDQVEASVEEAISSGTWVDIAPLLPTSLSVEDAAILLQQVMRAFSKQASTVVFSDTVVVSEKFINDCTELFRELMHQKAEKEMKNNPVHLITEEDLKQISTLESVSTSKKDKKDERRRKATEGSGSMRGGGGGNAREYKIKKVKKKGRKDDDSDDESQSSHTGKKKPEISFMFQDEIEDFLRKHIQDAPEEFISELAEYLIKPLNKTYLEVVRSVFMSSTTSASGTGRKRTIKDLQEEVSNLYNNIRLFEKGMKFFADDTQAALTKHLLKSVCTDITNLIFNFLASDLMMAVDDPAAITSEIRKKILSKLSEETKVALTKLHNSLNEKSIEDFISCLDSAAEACDIMVKRGDKKRERQILFQHRQALAEQLKVTEDPALILHLTSVLLFQFSTHSMLHAPGRCVPQIIAFLNSKIPEDQHALLVKYQGLVVKQLVSQSKKTGQGDYPLNNELDKEQEDVASTTRKELQELSSSIKDLVLKSRKSSVTEE [UFL1]”, for which the “solubility in G1/S (log2)” value with HeLa Kyoto [1] was -0.013. Further, the thermal stability score is 1.14 with HeLa Kyoto [2] (setting [5]) and 2.59 in the data set with HeLa Kyoto [2] (cell cycle stage: mitosis). Besides, the figures for the melting temperature in the data set with HeLa Kyoto [3] (cell cycle stage: G1/S) and with HeLa Kyoto [3] (cell cycle stage: mitosis) were 50 °C and 49.8 °C, respectively. Further, in the data set on HeLa Kyoto [4], the “solubility change mitosis (log2)” value is -0.0952.

Consider “MADDAGLETPLCSEQFGSGEARGCRAAADGSLQWEVGGWRWWGLSRAFTVKPEGRDAGEVGASGAPSPPLSGLQAVFLPQGFPDSVSPDYLPYQLWDSVQAFASSLSGSLATQAVLLGIGVGNAKATVSAATATWLVKDSTGMLGRIVFAWWKGSKLDCNAKQWRLFADILNDVAMFLEIMAPVYPICFTMTVSTSNLAKCIVSVAGGATRAALTVHQARRNNMADVSAKDSSQETLVNLAGLLVSLLMLPLVSGCPGFSLGCFFFLTALHIYANYRAVRALVMETLNEGRLRLVLKHYLQRGEVLDPTAANRMEPLWTGFWPAPSLSLGVPLHRLVSSVFELQQLVEGHQESYLLCWDQSQNQVQVVLNQKAGPKTILRAATHGLMLGALQGDGPLPAELEELRNRVRAGPKKESWVVVKETHEVLDMLFPKFLKGLQDAGWKTEKHQLEVDEWRATWLLSPEKKVL [C16ORF58]”, for which, in the data set on HeLa Kyoto [1], the “solubility in G1/S (log2)” value is -0.224. Besides, the thermal stability score is -0.365 in the data set with HeLa Kyoto [2] (setting [5]) and 0.0232 with HeLa Kyoto [2] (cell cycle stage: mitosis). In addition, the melting temperature in the data set on HeLa Kyoto [3] (cell cycle stage: G1/S) was 53.7 °C; with HeLa Kyoto [3] (cell cycle stage: mitosis), 53.8 °C. Besides, the “solubility change mitosis (log2)” value in the data set with HeLa Kyoto [4] was -0.031.

For “MADEAALALQPGGSPSAAGADREAASSPAGEPLRKRPRRDGPGLERSPGEPGGAAPEREVPAAARGCPGAAAAALWREAEAEAAAAGGEQEAQATAAAGEGDNGPGLQGPSREPPLADNLYDEDDDDEGEEEEEAAAAAIGYRDNLLFGDEIITNGFHSCESDEEDRASHASSSDWTPRPRIGPYTFVQQHLMIGTDPRTILKDLLPETIPPPELDDMTLWQIVINILSEPPKRKKRKDINTIEDAVKLLQECKKIIVLTGAGVSVSCGIPDFRSRDGIYARLAVDFPDLPDPQAMFDIEYFRKDPRPFFKFAKEIYPGQFQPSLCHKFIALSDKEGKLLRNYTQNIDTLEQVAGIQRIIQCHGSFATASCLICKYKVDCEAVRGDIFNQVVPRCPRCPADEPLAIMKPEIVFFGENLPEQFHRAMKYDKDEVDLLIVIGSSLKVRPVALIPSSIPHEVPQILINREPLPHLHFDVELLGDCDVIINELCHRLGGEYAKLCCNPVKLSEITEKPPRTQKELAYLSELPPTPLHVSEDSSSPERTSPPDSSVIVTLLDQAAKSNDDLDVSESKGCMEEKPQEVQTSRNVESIAEQMENPDLKNVGSSTGEKNERTSVAGTVRKCWPNRVAKEQISRRLDGNQYLFLPPNRYIFHGAEVYSDSEDDVLSSSSCGSNSDSGTCQSPSLEEPMEDESEIEEFYNGLEDEPDVPERAGGAGFGTDGDDQEAINEAISVKQEVTDMNYPSNKS [SIRT1]”, the “solubility in G1/S (log2)” value in the data set on HeLa Kyoto [1] was -0.0978. Besides, the thermal stability score in the data set with HeLa Kyoto [2] (setting [5]) was 0.328; in the data set on HeLa Kyoto [2] (cell cycle stage: mitosis), 2.02. The melting temperature in the data set on HeLa Kyoto [3] (cell cycle stage: G1/S) amounted to 50.2 °C; in the data set with HeLa Kyoto [3] (cell cycle stage: mitosis), 50.1 °C. The “solubility change mitosis (log2)” value in the data set with HeLa Kyoto [4] is -0.0419.

With “MADEDLIFRLEGVDGGQSPRAGHDGDSDGDSDDEEGYFICPITDDPSSNQNVNSKVNKYYSNLTKSERYSSSGSPANSFHFKEAWKHAIQKAKHMPDPWAEFHLEDIATERATRHRYNAVTGEWLDDEVLIKMASQPFGRGAMRECFRTKKLSNFLHAQQWKGASNYVAKRYIEPVDRDVYFEDVRLQMEAKLWGEEYNRHKPPKQVDIMQMCIIELKDRPGKPLFHLEHYIEGKYIKYNSNSGFVRDDNIRLTPQAFSHFTFERSGHQLIVVDIQGVGDLYTDPQIHTETGTDFGDGNLGVRGMALFFYSHACNRICESMGLAPFDLSPRERDAVNQNTKLLQSAKTILRGTEEKCGSPQVRTLSGSRPPLLRPLSENSGDENMSDVTFDSLPSSPSSATPHSQKLDHLHWPVFSDLDNMASRDHDHLDNHRESENSGDSGYPSEKRGELDDPEPREHGHSYSNRKYESDEDSLGSSGRVCVEKWNLLNSSRLHLPRASAVALEVQRLNALDLEKKIGKSILGKVHLAMVRYHEGGRFCEKGEEWDQESAVFHLEHAANLGELEAIVGLGLMYSQLPHHILADVSLKETEENKTKGFDYLLKAAEAGDRQSMILVARAFDSGQNLSPDRCQDWLEALHWYNTALEMTDCDEGGEYDGMQDEPRYMMLAREAEMLFTGGYGLEKDPQRSGDLYTQAAEAAMEAMKGRLANQYYQKAEEAWAQMEE [EEF2K]”, the “solubility in G1/S (log2)” value in the data set on HeLa Kyoto [1] came to 0.0328. Moreover, the results for the thermal stability score in the data set on HeLa Kyoto [2] (setting [5]) and in the data set on HeLa Kyoto [2] (cell cycle stage: mitosis) were 0.84 and 1.21, respectively. The melting temperature with HeLa Kyoto [3] (cell cycle stage: G1/S) stood at 47.7 °C; in the data set on HeLa Kyoto [3] (cell cycle stage: mitosis) it was 48.4 °C. In the data set with HeLa Kyoto [4], the “solubility change mitosis (log2)” value was -0.158.

“MADEIAKAQVARPGGDTIFGKIIRKEIPAKIIFEDDRCLAFHDISPQAPTHFLVIPKKHISQISVAEDDDESLLGHLMIVGKKCAADLGLNKGYRMVVNEGSDGGQSVYHVHLHVLGGRQMHWPPG [HINT1]”: the “solubility in G1/S (log2)” value with HeLa Kyoto [1] amounted to 0.25. Further, the results for the thermal stability score with HeLa Kyoto [2] (setting [5]) and with HeLa Kyoto [2] (cell cycle stage: mitosis) were -5.39 and -4.12, respectively. Also, the melting temperature in the data set with HeLa Kyoto [3] (cell cycle stage: G1/S) was 56.4 °C; in the data set with HeLa Kyoto [3] (cell cycle stage: mitosis), 56 °C. For the same sequence, the “solubility change mitosis (log2)” value in the data set with HeLa Kyoto [4] amounted to 0.17.
